{
  "source": "the supplement of paper PMC10724198",
  "note": "± gives the standard deviation of the averaged measurements.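 Further: PSI is a weighted mean of sequencing reads over stability bins, variants kept only with over 10 reads, mCherry proximal and sfGFP distal, peptide attached via GGGS linker.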",
  "data": [
    {"test_system": "Saccharomyces cerevisiae", "assay": "protein stability index of tFT-peptide fusion (C-terminal peptide) (PSI (0-1 scale)); higher = more stable (slower turnover)", "conditions": "genetic background: cdc34-1; temperature: 37 C", "protocol": "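MPS profiling in S. cerevisiae of the tFT-X12 degron library: putative degron peptides plus stable controls, 12 aa, fused to the C-terminus of a sfGFP-mCherry timer. Cells are FACS-sorted into 8 mCherry/sfGFP bins and deep-sequenced. PSI runs from 0 (unstable) to 1 (stable). Backgrounds are wild type, das1Δ and doa10Δ at 30 °C, and wild type, das1Δ, cdc34-1 and cdc53-1 at 37 °C; 2-3 technical replicates each.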", "values": [
      {"sequence": "AFRRFLLYCRFI", "protein stability index": "0.395 ± 0.013"},
      {"sequence": "AIPRWLALLVAH", "protein stability index": "0.32 ± 0.012"},
      {"sequence": "ALWRAWLRLRIW", "protein stability index": "0.517 ± 0.054"},
      {"sequence": "AQLVYVITAVRT", "protein stability index": "0.452 ± 0.017"},
      {"sequence": "ARLTNYFVEWLS", "protein stability index": "0.667 ± 0.012"},
      {"sequence": "ASAYCCMITRLN", "protein stability index": "0.485 ± 0.09"},
      {"sequence": "ASGVFSRLVLVS", "protein stability index": "0.323 ± 0.0038"},
      {"sequence": "ASPLRLFIPFLF", "protein stability index": "0.678 ± 0.071"},
      {"sequence": "AWLWCVCWSIMR", "protein stability index": "0.389 ± 0.017"},
      {"sequence": "AYFPSQRVHHLM", "protein stability index": "0.637 ± 0.046"},
      {"sequence": "CACAVPFLLLFF", "protein stability index": "0.474 ± 0.0077"},
      {"sequence": "CCSRYLSNLCPI", "protein stability index": "0.674 ± 0.052"},
      {"sequence": "CDSRIRKIWSYL", "protein stability index": "0.836 ± 0.069"},
      {"sequence": "CFFPLFLCTAFC", "protein stability index": "0.465 ± 0.027"},
      {"sequence": "CFSVFSVLCFFV", "protein stability index": "0.575 ± 0.02"},
      {"sequence": "CFVFYALFGFAV", "protein stability index": "0.37 ± 0.037"},
      {"sequence": "CLISILLFLCFT", "protein stability index": "0.439 ± 0.029"},
      {"sequence": "CLLVCCCFYRNV", "protein stability index": "0.501 ± 0.043"},
      {"sequence": "CLVKIVIFFLFS", "protein stability index": "0.22 ± 0.011"},
      {"sequence": "CNIYVLIIIKKY", "protein stability index": "0.1831 ± 0.00032"},
      {"sequence": "CPPPCPLYMLLC", "protein stability index": "0.506 ± 0.03"},
      {"sequence": "CRLLYYIPCGLF", "protein stability index": "0.656 ± 0.02"},
      {"sequence": "CRRLCGWLFVCV", "protein stability index": "0.466 ± 0.024"},
      {"sequence": "CSFELSVCLMLR", "protein stability index": "0.063 ± 0.0088"},
      {"sequence": "CSLRLCVRGAIV", "protein stability index": "0.667 ± 0.022"},
      {"sequence": "CSSSNRRRYFVL", "protein stability index": "0.603 ± 0.034"},
      {"sequence": "CVARWPRPAGSS", "protein stability index": "0.699 ± 0.035"},
      {"sequence": "CVFFPFLGVCYV", "protein stability index": "0.4206 ± 0.0039"},
      {"sequence": "CVGRPIALAVRT", "protein stability index": "0.52676 ± 0.0004"},
      {"sequence": "CVLLRPGFLVLV", "protein stability index": "0.1771 ± 0.0015"},
      {"sequence": "CVYGILLLVDVR", "protein stability index": "0.0231 ± 0.00051"},
      {"sequence": "CWDNTLKTMRQM", "protein stability index": "0.67 ± 0.0063"},
      {"sequence": "CWLFCACFVRLV", "protein stability index": "0.125 ± 0.014"},
      {"sequence": "CYFLFFLSYSLE", "protein stability index": "0.237 ± 0.0066"},
      {"sequence": "CYTGYMYKLLVG", "protein stability index": "0.507 ± 0.054"},
      {"sequence": "DFHLPWPVALVW", "protein stability index": "0.134 ± 0.02"},
      {"sequence": "DFIVVIRFIQII", "protein stability index": "0.268 ± 0.012"},
      {"sequence": "DFVYFPPIPVSS", "protein stability index": "0.303 ± 0.0088"},
      {"sequence": "DISWVFVLLIFF", "protein stability index": "0.333 ± 0.036"},
      {"sequence": "DMWYLLWRVCYI", "protein stability index": "0.51263 ± 0.00047"},
      {"sequence": "EGALSGGGKTSG", "protein stability index": "0.643 ± 0.045"},
      {"sequence": "EKIIVAVLFVVP", "protein stability index": "0.354 ± 0.032"},
      {"sequence": "ENKGGNQKRRKK", "protein stability index": "0.686 ± 0.048"},
      {"sequence": "EQMRRYILVSYV", "protein stability index": "0.522 ± 0.021"},
      {"sequence": "ERFRLYFRPGIF", "protein stability index": "0.635 ± 0.036"},
      {"sequence": "ESCWVSRVGVCR", "protein stability index": "0.685 ± 0.03"},
      {"sequence": "EVTRMLRVVREI", "protein stability index": "0.689 ± 0.035"},
      {"sequence": "EWLITLRKCGVA", "protein stability index": "0.606 ± 0.03"},
      {"sequence": "EWRPYKRNKQSS", "protein stability index": "0.63 ± 0.011"},
      {"sequence": "EWVGIFRGVSVF", "protein stability index": "0.2846 ± 0.0011"},
      {"sequence": "FAKRVARVAREH", "protein stability index": "0.677 ± 0.052"},
      {"sequence": "FALFLFFGPLIV", "protein stability index": "0.435 ± 0.066"},
      {"sequence": "FASFLFFCYIIF", "protein stability index": "0.124 ± 0.042"},
      {"sequence": "FCCFFPFLWRVF", "protein stability index": "0.593 ± 0.028"},
      {"sequence": "FCFYLLFLGFTR", "protein stability index": "0.475 ± 0.035"},
      {"sequence": "FCLFFFPSLFFF", "protein stability index": "0.57 ± 0.11"},
      {"sequence": "FCRLCYLLLFCC", "protein stability index": "0.37 ± 0.044"},
      {"sequence": "FELVWLCIIGAL", "protein stability index": "0.415 ± 0.012"},
      {"sequence": "FFCFFWLFHWFG", "protein stability index": "0.512 ± 0.012"},
      {"sequence": "FFCSLIISRFLL", "protein stability index": "0.542 ± 0.035"}
    ]}
  ]
}
